Results reported in US20130096282A1 (LOSTAM BIOPHARMACEUTICALS, published 2013).

Columns and labels:
[1] = molecular target: T1, flagellin type A of P. aeruginosa laboratory strain PAK (Pseudomonas aeruginosa, UniProt P21184 2-394); experiment: ELISA on whole immobilized bacteria, single point
T1 construct: whole, on cells; Tested on whole immobilized or formaldehyde-fixed bacteria (ELISA) and in blotted bacterial lysate (western blot)
T1 sequence: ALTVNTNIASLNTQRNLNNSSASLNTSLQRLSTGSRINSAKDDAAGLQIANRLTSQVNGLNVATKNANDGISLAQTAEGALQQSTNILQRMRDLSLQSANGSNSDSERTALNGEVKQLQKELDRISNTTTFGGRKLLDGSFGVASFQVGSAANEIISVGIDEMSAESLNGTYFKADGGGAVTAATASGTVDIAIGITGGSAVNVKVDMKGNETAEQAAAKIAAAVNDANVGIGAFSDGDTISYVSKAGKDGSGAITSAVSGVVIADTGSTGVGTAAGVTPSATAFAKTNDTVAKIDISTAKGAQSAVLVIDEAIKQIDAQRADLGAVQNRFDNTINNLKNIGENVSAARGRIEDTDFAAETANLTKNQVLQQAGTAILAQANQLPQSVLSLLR

[2] = molecular target: T2, recombinantly-expressed P. aeruginosa flagellin type B (Pseudomonas aeruginosa, UniProt P72151 1-488); experiment: ELISA, plates coated with recombinant flagellin type B at 5 µg/ml, anti-human Fc-HRP
T2 construct: also called PA flagellin type B; PA flagellin B
T2 sequence: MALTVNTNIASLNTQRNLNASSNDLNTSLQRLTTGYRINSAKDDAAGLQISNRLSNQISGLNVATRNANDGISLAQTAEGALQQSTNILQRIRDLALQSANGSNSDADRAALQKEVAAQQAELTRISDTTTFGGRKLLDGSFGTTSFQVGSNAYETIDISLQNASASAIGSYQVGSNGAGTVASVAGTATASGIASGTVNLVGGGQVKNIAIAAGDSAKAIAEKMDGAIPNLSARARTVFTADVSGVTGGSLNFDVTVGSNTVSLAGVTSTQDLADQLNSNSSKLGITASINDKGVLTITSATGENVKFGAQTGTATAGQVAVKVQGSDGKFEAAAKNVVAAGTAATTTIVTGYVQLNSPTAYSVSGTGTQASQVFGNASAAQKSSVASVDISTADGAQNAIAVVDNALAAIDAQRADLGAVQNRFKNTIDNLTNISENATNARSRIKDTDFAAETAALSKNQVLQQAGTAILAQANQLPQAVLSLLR

[3] = molecular target: T2, recombinantly-expressed P. aeruginosa …; experiment: SPR (ProteOn XPR36), mAb amine-coupled to GLM chip, flagellin as analyte 5-80 nM, 1:1 model
[4] = molecular target: T2, recombinantly-expressed P. aeruginosa …; experiment: ELISA, plates coated with recombinant flagellin type B (250 ng/well), anti-human Fc-HRP
[5] = molecular target: T2, recombinantly-expressed P. aeruginosa …; experiment: ELISA on plates coated with purified flagellin type B
[6] = molecular target: T3, recombinantly-expressed P. aeruginosa flagellin type A (Pseudomonas aeruginosa, UniProt P21184 2-394); experiment: ELISA on plates coated with purified flagellin type A
T3 construct: also called PA flagellin type A; PA flagellin A
T3 sequence: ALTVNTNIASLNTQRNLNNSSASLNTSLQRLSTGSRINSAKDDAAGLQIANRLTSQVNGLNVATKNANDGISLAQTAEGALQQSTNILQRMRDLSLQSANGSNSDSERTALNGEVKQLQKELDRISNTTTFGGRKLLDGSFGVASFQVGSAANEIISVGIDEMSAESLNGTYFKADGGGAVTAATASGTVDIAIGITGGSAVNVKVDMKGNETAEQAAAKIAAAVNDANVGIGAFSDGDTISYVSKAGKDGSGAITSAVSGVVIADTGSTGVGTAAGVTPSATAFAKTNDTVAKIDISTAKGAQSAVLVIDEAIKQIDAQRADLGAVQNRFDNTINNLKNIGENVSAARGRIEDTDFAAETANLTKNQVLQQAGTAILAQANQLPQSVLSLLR

[7] = molecular target: T4, flagellin type B of P. aeruginosa laboratory strain PA01 (Pseudomonas aeruginosa, UniProt P72151 1-488); experiment: immunoblot of P. aeruginosa lysates probed with LST-003, anti-human Fc peroxidase detection
T4 construct: whole, on cells; Tested on whole immobilized or formaldehyde-fixed bacteria (ELISA), in blotted lysate (western blot) and on live bacteria (motility)
T4 sequence: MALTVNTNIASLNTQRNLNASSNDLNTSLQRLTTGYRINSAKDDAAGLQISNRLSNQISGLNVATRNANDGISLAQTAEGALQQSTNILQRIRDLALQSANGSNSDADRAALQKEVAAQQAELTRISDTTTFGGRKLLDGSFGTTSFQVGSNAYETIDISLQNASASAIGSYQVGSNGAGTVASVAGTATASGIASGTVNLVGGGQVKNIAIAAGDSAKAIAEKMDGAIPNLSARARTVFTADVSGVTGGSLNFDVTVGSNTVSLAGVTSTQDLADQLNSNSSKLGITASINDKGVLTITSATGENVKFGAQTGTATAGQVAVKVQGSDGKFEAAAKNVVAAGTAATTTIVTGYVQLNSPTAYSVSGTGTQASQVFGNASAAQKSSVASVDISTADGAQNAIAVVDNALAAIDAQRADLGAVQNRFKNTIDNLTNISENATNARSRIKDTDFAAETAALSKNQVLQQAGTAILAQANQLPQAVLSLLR

[8] = molecular target: T3, recombinantly-expressed P. aeruginosa …; experiment: SPR (ProteOn XPR36), mAb amine-coupled to GLM chip, flagellin as analyte 5-80 nM, 1:1 model
[9] = molecular target: T3, recombinantly-expressed P. aeruginosa …; experiment: ELISA, plates coated with recombinant flagellin type A (250 ng/well), anti-human Fc-HRP
[10] = molecular target: T4, flagellin type B of P. aeruginosa …; experiment: immunoblot of P. aeruginosa lysates probed with LST-001, anti-mouse Fc peroxidase detection

B1: human monoclonal IgM antibody LST-007 (antibody, V domains shown)
VH: QVRLVQSGTEVKKPGASVRVSCKASGYTFSNYYMYWVRQAPGQGLEWMAMINPSGGSTRYAQKFQGRVTMTRDTSTSTVYMELSSLRSEDTAVYYCARADSGSYFGYWGQGTLVTVSS
VL: DIQLTQSPSFLSASVGDRVPITCRASQGISTHLAWYQQKPGKAPKLLIYAASTLQSGVPSRFSGSGSGTEFTLTISSLQPEDSATYYCQQLKSYPLTFGGGTKVEIKR
notes: Human IgM from an EBV-transformed lymphoblastoid cell line, tested as culture supernatant; also called 20H11 (ATCC CRL9300); human monoclonal IgM anti-flagella type B antibody
B1: no binding [1].

B2: fully human recombinant mAb LST-008 (antibody, V domains shown)
VH: QVRLVQSGTEVKKPGASVRVSCKASGYTFSNYYMYWVRQAPGQGLEWMAMINPSGGSTRYAQKFQGRVTMTRDTSTSTVYMELSSLRSEDTAVYYCARADSGSYFGYWGQGTLVTVSS
VL: DIQLTQSPSFLSASVGDRVPITCRASQGISTHLAWYQQKPGKAPKLLIYAASTLQSGVPSRFSGSGSGTEFTLTISSLQPEDSATYYCQQLKSYPLTFGGGTKVEIKR
notes: Human IgG1 made in CHO-S cells; also called recombinant human LST-008
Binder B2 has an EC50 [2] of about 0.01 µg/mL and a Kd [3] of 0.94 nM.

B3: chimeric mAb LST-004 (antibody, V domains shown)
VH: EVMLVESGGGLVKPGGSLKLSCAASGFTFSTFTMSWVRQTPEKRLECVATINGGGGNTYYPDSVKGRFTISRDNAKNNLYLQMSSLRSEDTAFYFCSRLYGIYAMDYWGQGTSVTVSS
VL: DIVMTQSHIFMSTSVGDRVSITCKASQDVGSAVAWYQQKPGQSPKVLIYWTSTRHTGVPDRFAGSGSGTEFTLTISNVQSEDLADYFCQQYSSYPLTFGAGTKLELKR
notes: also called chimeric LST-004
B3 was tested, and the EC50 [4] was about 0.3 µg/mL, the “EC50 (read off the curve)” value [5] was about 1 nM and the Kd [3] was 1.3 nM.

B4: mouse monoclonal antibody LST-002 (antibody, V domains shown)
VH: EVMLVESGGGLVKPGGSLKLSCAASGFTFSTFTMSWVRQTPEKRLECVATINGGGGNTYYPDSVKGRFTISRDNAKNNLYLQMSSLRSEDTAFYFCSRLYGIYAMDYWGQGTSVTVSS
VL: DIVMTQSHIFMSTSVGDRVSITCKASQDVGSAVAWYQQKPGQSPKVLIYWTSTRHTGVPDRFAGSGSGTEFTLTISNVQSEDLADYFCQQYSSYPLTFGAGTKLELKR
notes: Mouse monoclonal antibody; also called mouse LST-002; PaF4 IVE5 (ATCC HB9129)
In the case of B4, the binding result [1] is reported as “no binding (tested: 1:2 dilution, concentration not given)” and the Kd [3] is reported as 0.82 nM.

B5: chimeric mAb LST-003 (antibody, V domains shown)
VH: DVQLQESGPGLVKPSQSLSLPCSVTGYSITSGYYWNWIRQFPGNKLEWMGYIRYDGNNNYNPSLKNRISITHDTSKNQFFLKLNYVTTEDTATYYCARGLQFYFDSWGQGTTLTVSS
VL: DIVMSQSPSSLAVSGGEKVTMSCKSSQSLLNGSYQKHTLAWYQQKPGQSPKLLIYWASTRESGVPDRFTGSGSGTDFTLTISSVKAEDLAVYYCQQYYSYPWTFGGGTKLEIKR
notes: also called chimeric LST-003; chimeric anti-flagella type A antibody
For B5, the “EC50 (read off the curve)” value [6] was about 0.7 nM, the binding result [7] was “no binding (tested: 10 µg/ml)” and the Kd [8] was 3 nM. The EC50 [9] was about 0.065 µg/mL.

B6: dual-specific chimeric mAb LST-010 (bispecific antibody)
heavy: not shown
light: DIVMSQSPSSLAVSGGEKVTMSCKSSQSLLNGSYQKHTLAWYQQKPGQSPKLLIYWASTRESGVPDRFTGSGSGTDFTLTISSVKAEDLAVYYCQQYYSYPWTFGGGTKLEIKR
notes: also called dual-specific LST-010 mAb; not shown: human light constant domain (CL)
In the case of B6, the “EC50 (read off the curve)” value [6] is reported as about 0.9 nM.

B7: mouse monoclonal antibody LST-001 (antibody, V domains shown)
VH: DVQLQESGPGLVKPSQSLSLPCSVTGYSITSGYYWNWIRQFPGNKLEWMGYIRYDGNNNYNPSLKNRISITHDTSKNQFFLKLNYVTTEDTATYYCARGLQFYFDSWGQGTTLTVSS
VL: DIVMSQSPSSLAVSGGEKVTMSCKSSQSLLNGSYQKHTLAWYQQKPGQSPKLLIYWASTRESGVPDRFTGSGSGTDFTLTISSVKAEDLAVYYCQQYYSYPWTFGGGTKLEIKR
notes: Mouse monoclonal antibody; also called mouse LST-001; FA6 IIG5 (ATCC HB9130)
B7 was tested, and the binding result [10] was “no binding (tested: 10 µg/ml)” and the Kd [8] was 0.6 nM.
